Patent publication US20240182536A1 (MURAL ONCOLOGY, published 2024)
Where two headings read alike, the source gives them in different places.

Tests used:
[1] = target: T1, IL-18 receptors on HEK-Blue IL-18 reporter cells (UniProt Q13478 19-541; O95256 20-599, limits assumed); experiment: cell-based or functional assay
T1 sequence (looked up) 1: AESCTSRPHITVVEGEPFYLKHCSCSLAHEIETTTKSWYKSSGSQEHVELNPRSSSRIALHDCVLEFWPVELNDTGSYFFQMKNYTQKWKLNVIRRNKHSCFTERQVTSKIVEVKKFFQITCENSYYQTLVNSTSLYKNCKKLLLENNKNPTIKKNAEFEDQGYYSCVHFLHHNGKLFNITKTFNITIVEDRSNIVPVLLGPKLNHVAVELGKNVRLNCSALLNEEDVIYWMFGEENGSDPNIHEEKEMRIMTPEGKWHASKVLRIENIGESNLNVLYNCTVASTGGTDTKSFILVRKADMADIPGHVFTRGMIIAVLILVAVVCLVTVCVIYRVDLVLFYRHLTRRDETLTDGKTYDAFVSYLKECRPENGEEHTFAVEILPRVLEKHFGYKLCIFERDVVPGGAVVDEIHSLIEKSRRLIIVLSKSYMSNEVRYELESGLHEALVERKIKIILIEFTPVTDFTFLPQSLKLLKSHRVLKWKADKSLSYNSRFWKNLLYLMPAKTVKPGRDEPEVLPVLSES
T1 sequence (looked up) 2: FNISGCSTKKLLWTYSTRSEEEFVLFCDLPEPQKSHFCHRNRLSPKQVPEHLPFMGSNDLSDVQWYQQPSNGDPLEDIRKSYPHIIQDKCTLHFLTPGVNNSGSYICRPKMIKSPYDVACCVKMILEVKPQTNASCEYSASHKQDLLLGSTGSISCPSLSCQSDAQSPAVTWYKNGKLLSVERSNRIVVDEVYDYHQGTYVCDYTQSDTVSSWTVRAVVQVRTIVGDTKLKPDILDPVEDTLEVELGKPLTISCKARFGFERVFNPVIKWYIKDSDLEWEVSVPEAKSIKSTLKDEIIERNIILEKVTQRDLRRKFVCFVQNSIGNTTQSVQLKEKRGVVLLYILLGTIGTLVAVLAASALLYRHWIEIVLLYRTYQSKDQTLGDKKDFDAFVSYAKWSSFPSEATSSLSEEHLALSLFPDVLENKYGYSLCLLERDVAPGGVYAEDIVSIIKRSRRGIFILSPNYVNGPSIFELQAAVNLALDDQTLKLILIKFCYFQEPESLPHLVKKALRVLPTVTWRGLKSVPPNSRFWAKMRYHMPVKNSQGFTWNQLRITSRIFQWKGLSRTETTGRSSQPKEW

[2] = target: T2, human IL-18 binding protein (human, UniProt O95998 31-194); experiment: cell-based or functional assay
T2 sequence (looked up): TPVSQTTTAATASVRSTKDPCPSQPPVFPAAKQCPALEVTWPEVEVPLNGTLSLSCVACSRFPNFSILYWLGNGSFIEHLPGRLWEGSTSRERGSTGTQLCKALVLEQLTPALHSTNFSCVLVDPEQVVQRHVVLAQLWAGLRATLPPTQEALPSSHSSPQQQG

[3] = target: T1, IL-18 receptors on HEK-Blue IL-18 …; experiment: cell-based or functional assay; remark: listed apart in the source
[4] = target: T2, human IL-18 binding protein; experiment: cell-based or functional assay; remark: listed apart in the source
IL-18 receptor alpha = target: T3, IL-18 receptor alpha (UniProt Q13478 19-329, limits assumed); experiment: Octet BLI
T3 construct: also called IL-18 Rα; IL-18Rα
T3 sequence (looked up): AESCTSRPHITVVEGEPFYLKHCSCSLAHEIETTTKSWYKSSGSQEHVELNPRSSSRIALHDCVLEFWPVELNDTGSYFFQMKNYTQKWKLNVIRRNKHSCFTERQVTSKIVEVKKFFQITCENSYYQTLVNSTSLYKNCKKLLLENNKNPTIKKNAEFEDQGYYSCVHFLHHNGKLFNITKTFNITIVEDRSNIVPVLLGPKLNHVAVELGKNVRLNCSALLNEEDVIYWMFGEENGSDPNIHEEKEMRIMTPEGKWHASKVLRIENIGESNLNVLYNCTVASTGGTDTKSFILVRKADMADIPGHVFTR
Method: (§1) Octet 96red instrument was used to determine affinities of IL18 proteins to BP or receptors. 5-10 ug/ml analyte proteins were used for loading on Sartorius tips (AHC or SA). […] 120-180 s loading, 200 s association and 800 s dissociation were used for kinetics. 3-7 data points were used to calculate affinities.
Additional IL-18 variants were generated and tested based on the results above with G3 variants, E6 variants, K53 variants, and M60 variants. The new variants were first tested for binding to IL-18Rα and IL-18BP by octet, as described above.

[5] = target: T4, human IL-18 binding protein (IL-18BP) (human, UniProt O95998 31-194); experiment: Octet BLI
T4 construct: also called hu IL-18BP; hIL18BP
T4 sequence (looked up): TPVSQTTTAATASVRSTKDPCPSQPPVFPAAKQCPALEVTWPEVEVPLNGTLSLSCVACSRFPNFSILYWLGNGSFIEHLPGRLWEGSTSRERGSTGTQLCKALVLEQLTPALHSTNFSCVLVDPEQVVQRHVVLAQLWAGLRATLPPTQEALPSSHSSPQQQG
Method: as §1
Select G3/K53-substitution containing IL-18 variants and select G3/K53/N91-substitution containing TL-18 variants were tested for activity in the HEK-blue activity assay and for binding affinity to IL-18BP. As shown in the data of Table 15 and Table 16 below, each variant had similar or better activity than WT IL-18, and retained substantial activity in the presence of IL-18BP.

[6] = target: T4, human IL-18 binding protein (IL-18BP); experiment: cell-based or functional assay
[7] = target: T5, IL-18 receptors on HEK-Blue IL-18 reporter cells (InvivoGen) (UniProt Q13478 19-541; O95256 20-599); experiment: cell-based or functional assay
T5 sequence (looked up) 1: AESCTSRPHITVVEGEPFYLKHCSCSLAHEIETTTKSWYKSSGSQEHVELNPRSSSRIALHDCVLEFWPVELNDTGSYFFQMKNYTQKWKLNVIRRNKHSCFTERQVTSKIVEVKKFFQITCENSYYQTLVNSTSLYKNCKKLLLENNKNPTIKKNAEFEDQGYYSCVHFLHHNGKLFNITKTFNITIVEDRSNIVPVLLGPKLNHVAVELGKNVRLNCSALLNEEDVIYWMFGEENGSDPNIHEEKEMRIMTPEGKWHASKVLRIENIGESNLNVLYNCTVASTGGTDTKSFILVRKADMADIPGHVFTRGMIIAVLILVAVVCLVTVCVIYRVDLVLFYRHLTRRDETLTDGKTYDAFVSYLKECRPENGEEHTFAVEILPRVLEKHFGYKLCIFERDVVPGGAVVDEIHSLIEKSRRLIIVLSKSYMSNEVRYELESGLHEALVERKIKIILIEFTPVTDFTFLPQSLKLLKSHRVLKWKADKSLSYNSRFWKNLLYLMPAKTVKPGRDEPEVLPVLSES
T5 sequence (looked up) 2: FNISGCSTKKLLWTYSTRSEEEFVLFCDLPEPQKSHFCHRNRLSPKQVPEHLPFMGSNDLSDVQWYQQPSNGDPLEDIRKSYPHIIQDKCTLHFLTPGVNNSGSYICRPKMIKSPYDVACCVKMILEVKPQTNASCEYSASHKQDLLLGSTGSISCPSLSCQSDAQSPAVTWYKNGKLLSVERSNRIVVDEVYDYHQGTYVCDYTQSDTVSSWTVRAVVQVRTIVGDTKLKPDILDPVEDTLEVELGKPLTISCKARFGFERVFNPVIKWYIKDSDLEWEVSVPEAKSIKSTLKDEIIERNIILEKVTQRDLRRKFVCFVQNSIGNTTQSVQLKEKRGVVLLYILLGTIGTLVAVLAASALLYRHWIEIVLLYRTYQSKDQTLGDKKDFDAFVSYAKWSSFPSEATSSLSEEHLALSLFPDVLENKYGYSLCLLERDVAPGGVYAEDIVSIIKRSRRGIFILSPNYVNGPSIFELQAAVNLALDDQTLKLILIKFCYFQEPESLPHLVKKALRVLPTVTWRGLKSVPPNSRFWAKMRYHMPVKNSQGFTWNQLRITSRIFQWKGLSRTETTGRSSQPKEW

[8] = target: T4, human IL-18 binding protein (IL-18BP); experiment: cell-based or functional assay; remark: listed apart in the source
[9] = target: T5, IL-18 receptors on HEK-Blue IL-18 …; experiment: cell-based or functional assay; remark: listed apart in the source

Binder	HEK-blue EC50 (pM) - BP [1] [pM]	HEK-blue EC50 (pM) + 1000 nM BP [2] [pM]	HEK-blue EC50 (pM) - BP [3] [pM]	HEK-blue EC50 (pM) + 300 nM BP [4] [pM]	Kd (IL-18 receptor alpha) [nM]	Kd [5] [nM]	koff [5] [s⁻¹]	kon [5] [M⁻¹ s⁻¹]	HEK-Blue Ec50 (pM), +IL-18BP (50 nM) [6] [pM]	HEK-Blue Ec50 (pM), -IL-18BP [7] [pM]	HEK-Blue Ec50 (pM), +IL-18BP (50 nM) [8] [pM]	HEK-Blue Ec50 (pM), -IL-18BP [9] [pM]
human IL-18 variant G3T/E6K/K53S/M60K (ligand) YFTKLKSKLSVIRNLNDQVLFIDQGNRPLFEDMTDSDMRDNAPRTIFIISMYSDSQPRGKAVTISVKSEKISTLSSENKIISFKEMNPPDNIKDTKSDIIFFQRSVPGHDNKMQFESSSYEGYFLASEKERDLFKLILKKEDELGDRSIMFTVQNED	0.252	0.231	0.33	0.308	536	–	–	–	–	–	–	–
human IL-18 variant G3T/K53A/M60K (ligand) YFTKLESKLSVIRNLNDQVLFIDQGNRPLFEDMTDSDMRDNAPRTIFIISMYADSQPRGKAVTISVKSEKISTLSSENKIISFKEMNPPDNIKDTKSDIIFFQRSVPGHDNKMQFESSSYEGYFLASEKERDLFKLILKKEDELGDRSIMFTVQNED	1.88	1.31	0.843	1.01	2260	–	–	–	–	–	–	–
human IL-18 variant G3T/K53S/M60K (ligand) YFTKLESKLSVIRNLNDQVLFIDQGNRPLFEDMTDSDMRDNAPRTIFIISMYSDSQPRGKAVTISVKSEKISTLSSENKIISFKEMNPPDNIKDTKSDIIFFQRSVPGHDNKMQFESSSYEGYFLASEKERDLFKLILKKEDELGDRSIMFTVQNED	5.53	4.1	4.26	4.99	5050	–	–	–	–	–	–	–
IL-18 variant G3A, K53S (ligand) YFAKLESKLSVIRNLNDQVLFIDQGNRPLFEDMTDSDMRDNAPRTIFIISMYSDSQPRGMAVTISVKSEKISTLSSENKIISFKEMNPPDNIKDTKSDIIFFQRSVPGHDNKMQFESSSYEGYFLASEKERDLFKLILKKEDELGDRSIMFTVQNED	–	–	–	–	–	16.2	0.00398	245000	4.45	1.69	–	–
IL-18 variant G3F, K53S (ligand) YFFKLESKLSVIRNLNDQVLFIDQGNRPLFEDMTDSDMRDNAPRTIFIISMYSDSQPRGMAVTISVKSEKISTLSSENKIISFKEMNPPDNIKDTKSDIIFFQRSVPGHDNKMQFESSSYEGYFLASEKERDLFKLILKKEDELGDRSIMFTVQNED	–	–	–	–	–	11.8	0.0048	408000	5.88	3.39	–	–
IL-18 variant G3S, K53S (ligand) YFSKLESKLSVIRNLNDQVLFIDQGNRPLFEDMTDSDMRDNAPRTIFIISMYSDSQPRGMAVTISVKSEKISTLSSENKIISFKEMNPPDNIKDTKSDIIFFQRSVPGHDNKMQFESSSYEGYFLASEKERDLFKLILKKEDELGDRSIMFTVQNED	–	–	–	–	–	12	0.00338	283000	4.43	2.06	–	–
IL-18 variant G3R, N91S, K53A (ligand) YFRKLESKLSVIRNLNDQVLFIDQGNRPLFEDMTDSDMRDNAPRTIFIISMYADSQPRGMAVTISVKSEKISTLSSENKIISFKEMNPPDSIKDTKSDIIFFQRSVPGHDNKMQFESSSYEGYFLASEKERDLFKLILKKEDELGDRSIMFTVQNED	–	–	–	–	–	0.9	0.000162	191000	–	–	2.8	0.05
